Measurements taken from patent publication EP4197559A1, “IMMUNOMODULATORY PROTEIN-SIRNA COMPLEX HAVING ANTICANCER ACTIVITY” (Korea Institute of Science and Technology, priority 2020, dated 2022).

Assays:
[1] = tested on: CT26.CL25 cells; test: Cytotoxicity by CCK-8 (cell counting kit-8); format: cell-based, mouse; settings: 800 nM, 72 hours
Protocol: Then, the cells were analyzed using the CCK-8 (cell counting kit-8) kit.

[2] = biological target: T1, papain enzyme (Carica papaya, UniProt P00784); test: Enzyme specificity: cleavage by papain enzyme, analysed by HPLC; format: biochemical
T1 sequence (P00784 134-345): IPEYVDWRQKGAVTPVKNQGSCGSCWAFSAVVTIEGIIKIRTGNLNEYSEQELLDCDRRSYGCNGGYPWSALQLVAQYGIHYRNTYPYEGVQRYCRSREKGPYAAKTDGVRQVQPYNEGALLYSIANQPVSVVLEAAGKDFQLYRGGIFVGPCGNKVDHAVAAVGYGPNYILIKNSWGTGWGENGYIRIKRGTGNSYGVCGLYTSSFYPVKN
Protocol: After adsorbing the sample to a C18 column (Xbridge C18, Waters, MS, USA), it was analyzed by HPLC (Agilent Technologies, CA, USA) while eluting for 30 minutes with concentration gradients using 0.1% TFA/5-95% ACN solutions.

[3] = tested on: HPRT gene; test: Silencing effect for HPRT gene expression (RT-PCR, agarose gel); format: cell-based, rat; settings: CT26.CL25 cells, 4 hours serum-free then 2 days
[4] = tested on: macrophages (bone marrow-derived macrophages, BMDM); test: Macrophage phagocytosis of treated cancer cells (fluorescence microscopy); format: cell-based, mouse
Protocol: After the culturing was completed, the CT26.CL25 cells were stained with pHrodo Red (Invitrogen, CA, USA) and, after adding macrophages (bone marrow-derived macrophages, BMDM) extracted from the bone marrow of a laboratory mouse (C57BL/6, male, 6-week-old), cultured for 3 hours in RPMI 1640 medium. The macrophages were stained with Green Cell Tracker (Thermo Fisher Scientific, MS, USA) and fluorescence was measured using a fluorescence microscope (Nikon, Japan).
A control group was treated only with the SIPRα protein.

[5] = tested on: CD47 gene; test: Silencing effect for CD47 gene expression (RT-PCR, agarose gel); format: cell-based, mouse; settings: CT26.CL25 cells, 4 hours serum-free then 2 days, without CD47 antibody (-)
[6] = tested on: cancer cells; test: Pharmacological effect on cancer cells (general statement, no method given)
[7] = tested on: HT-29 cells; test: Intracellular delivery (uptake) by confocal microscopy; format: cell-based, human
Protocol: First, 2×10^5 HT-29 cells, which are human-derived colon cancer cells, were seeded onto a 35-mm cover glass bottom dish. […] Then, CD47 SiRNA was stained red by using the TOTO3 stain. Next, after treating with the fusion protein-siRNA complex separated and purified in Example 2 at a concentration of 100 pmol/mL, the cells were cultured for 4 hours in a carbon dioxide incubator at 37 °C. Then, the cells were treated with a fixative and the SIRPα protein was stained green using FITC-labeled His-tag antibody. After staining the nuclei of the cells by treating with a 4',6-diamidino-2-phenylindole (DAPI) solution for 10 minutes, fluorescence was measured by confocal microscopy.
In the figure, the blue color corresponds to the nuclei of the cells, the red color to the CD47 siRNA, and the green color to the SIRPα protein.

B1: Example 2: Immunoregulatory fusion protein (SIRPα-linker, SEQ ID NO 1) bound 1 : 1 via cysteine thiol-maleimide to CD47 siRNA (SEQ ID NO 17/18) (conjugate)
chain 1: EEELQIIQPDKSVLVAAGETATLRCTITSLFPVGPIQWFRGAGPGRVLIYNQRQGPFPRVTTVSDTTKRNNMDFSIRIGNITPADAGTYYCIKFRKGSPDDVEFKSGAGTELSVRAKPVDGGFLGGGGCG
chain 2: gggauauuaauacuacuucaguacaca
chain 3: uguacugaaguauuaauauccccg
modifications: cysteine thiol-maleimide conjugation of protein to siRNA; fusion protein; siRNA_DNA : The 26th and 27th nucleotide sequences are DNA; siRNA ansti sense
How did the cell viability [1] turn out when B1 was run?
The cell viability was no less than 80%.

And the “SIRPα protein detected by HPLC” value ([2]; after treating with the papain enzyme, room temperature, 10 minutes)?
Its value is “detected after treating with the papain enzyme”.

What about the “SIRPα protein detected by HPLC” value ([2]; complex not treated with the papain enzyme (control)) of the same molecule?
The value was “not detected”.

And the “expression level of the HPRT gene” value [3]?
Its value is “little change in the expression level of the HPRT gene”.

And the phagocytosis by macrophages ([4]; CT26.CL25 cells treated at 200 pmol/mL for two days, then BMDM for 3 hours, compared with siRNA alone)?
The phagocytosis by macrophages was “enhances phagocytosis by macrophages better than when the siRNA was used alone”.

What about the “effect of enhancing macrophage phagocytosis as compared to only the siRNA (CD47 siRNA) or the SIPRα protein” value ([4]; printed as 1.5-3 times or higher) of the same molecule?
The value was 1.5-3 times.

And the “expression of the CD47 gene” value [5]?
Its value is “decreases the expression of the CD47 gene to a level comparable to that of the lipofectamine-siRNA complex”.

And the “superior pharmacological effect on cancer cells as compared to the fusion protein or the siRNA administered alone” value [6]?
Its value is 1.5-5 times.

What about the absorption into cells ([7]; confocal microscopy) of the same molecule?
The absorption into cells was “effectively absorbed into cells”.

And the intracellular uptake ([7]; treated together with the CD47 antibody)?
The intracellular uptake was “decreased significantly”.
